In patent publication US20220267462A1 (HARPOON THERAPEUTICS, published 2022):

T1: cynomolgus EpCAM protein (cynomolgus, UniProt Q1WER1 27-265 (rhesus entry), limits assumed, biotinylated in the Octet assays (site not stated))
T1 construct: also called cy EpCAM; biotinylated cynomolgus EpCAM protein
T1 sequence: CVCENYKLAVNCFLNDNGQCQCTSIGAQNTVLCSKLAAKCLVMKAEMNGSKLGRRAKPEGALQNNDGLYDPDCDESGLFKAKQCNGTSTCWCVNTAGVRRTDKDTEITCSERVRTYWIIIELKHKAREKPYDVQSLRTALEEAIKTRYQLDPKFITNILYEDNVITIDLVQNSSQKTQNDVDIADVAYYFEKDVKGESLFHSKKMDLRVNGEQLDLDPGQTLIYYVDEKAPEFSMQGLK

T2: human EpCAM protein (human, UniProt P16422 24-265, biotinylated in the Octet assays (site not stated))
T2 construct: also called hu EpCAM; biotinylated human EpCAM protein
T2 sequence: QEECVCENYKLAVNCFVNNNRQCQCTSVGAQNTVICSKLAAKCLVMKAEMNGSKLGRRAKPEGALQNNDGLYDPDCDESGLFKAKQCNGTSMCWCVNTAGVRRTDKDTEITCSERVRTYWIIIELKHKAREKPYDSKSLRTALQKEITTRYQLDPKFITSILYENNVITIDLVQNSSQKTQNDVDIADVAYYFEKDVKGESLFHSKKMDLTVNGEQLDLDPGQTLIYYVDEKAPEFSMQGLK


Experiments:
Assay in all cases: colorimetric ELISA
[1] = target: cynomolgus EpCAM protein (cynomolgus)
[2] = target: T1, cynomolgus EpCAM protein
Excerpt: (§1) A phage display library for expression of heavy variable antibody domains was constructed from circulating B cells. See van der Linden, de Geus, Stok, Bos, van Wassenaar, Verrips, and Frenken. 2000. J Immunol Methods 240:185-195.

[3] = target: T2, human EpCAM protein
Excerpt: as §1

| Binder | Cynomolgus EpCAM/Control [1] | Cynomolgus EpCAM/Control [2] | Human EpCAM/Control [3] |
| --- | --- | --- | --- |
| EPL13 (VHH) VHH: QVQLQESGGGLVQPGGSLRLSCAASGFAFGNHWMYWYRQAPGRGRELVASISSGGSTNYVDSVKGRFTISRDNARNTVYLQMYSLKPEDTAVYYCGTSDNWGQGTQVTVSS | – | 23 | 17 |
| EPL125 (VHH) VHH: QVQLQESGGGLVQAGGSLRLSCAASGNVFRAATMAWYRQVPEKQREMVATIASGGTTNYADFVKGRFTISRDNAKNTVYLQMNTLKPEDTAVYYCNALYLTSLGPKSYWGQGTQVTVSS | – | 8 | 8 |
| EPL60 (VHH) VHH: QVQLQESGGGLVQAGGSLRLSCAASEYILSMYRMAWYRQAPGKVRELVADMSSGGTTNYADFVKGRFTISRDNDRNTVYLQMNRLQPEDTAAYYCNVAGRTGPPSYDAFNNWGQGTQVTVSS | – | 33 | 10 |

Next, values leading:

| Cynomolgus EpCAM/Control [1] | Cynomolgus EpCAM/Control [2] | Human EpCAM/Control [3] | Binder |
| --- | --- | --- | --- |
| 2 | – | – | EPL159 (VHH) VHH: QVQLQESGGGLVQAGGSLRLSCAASGFAFGNHWMYWYRQAPGRGRELVASISSGGSTNYVDSVKGRFTISRDNARNTVYLQMYSLKPEDTAVYYCGTSDNWGQGTQVTVSS |
| – | 29 | 20 | EPL129 (VHH) VHH: QVQLQESGGGLVQAGGSLRLSCAASGFAFGNHWMYWYRQAPGRGRELVASISSGGSTNYVDSVKGRFTISRDNARNTVYLQMYSLRPEDTAVYYCGTSDNWGQGTQVTVSS |
| – | 17 | 16 | EPL156 (VHH) VHH: QVQLQESGGGLVQPGASLRVSCAASEYILSMYRMAWYRQAPGKVRELVADMSSGGTTNYADFVKGRFTISRDNDRNTVYLQMNRLQPEDTAAYYCNVAGRTGPPSYDAFNNWGQGTQVTVSS |
| 2 | – | 3 | EPL145 (VHH) VHH: QVQLQESGGGLVQAGGSLRLSCAASGFIFRAASMGWFRQSPGNERELVATVSSGGFTNYADSVKGRFTISRDNAKNTVYLQMNSLKPEDTAVYFCGATFVRSDGHHTIYGQGTQVTVSS |
